Results taken from patent publication US7157092B1, “Acyl pseudodipeptides, preparation method and pharmaceutical compositions containing same” (Om Pharma, priority 1998, dated 2007).

Tested on: ovalbumin
Assay: Subcutaneous immunization with ovalbumin antigen: specific serum immunoglobulins (ELISA)
Format: in vivo, BALB/c mice
Details: s.c. injections days 0 and 14, ovalbumin 50 μg, adjuvant 50 μg per injection, ± SD
Protocol: To this end, 50 BALB/c mice (females, aged 8 weeks at the beginning of treatment) were divided into 5 groups as follows:
Antigen: An ovalbumin stock solution is prepared at a concentration of 0.5 mg/ml in 0.9% NaCl.
The negative control consists of a 0.9% NaCl solution without antigen.
Antigen-Adjuvant mixture: Adjuvants are allowed to stand for 20 minutes at 37° C. before vortex treatment for 3 minutes. Then the antigen and (0.9%) NaCl are added as specified in the above Table, and the antigen/adjuvant mixture is vortexed briefly before placing it on a rotary stirrer for 15 minutes at room temperature, then the whole mixture is vortexed for 3 minutes.
Immunization regimen: Injections are scheduelled on days 0 and 14. The mixtures stated in the preceeding table are administered by subcutaeous route (75 μl on the side, 150 μl in total per animal). Blood sampling is scheduelled on days 14 and 28 (orbital puncture).
Assay for anti-ovalbumin immunoglobulins: The following serum Immunolglobulins which are specifically directed against ovalbumin are assayed in duplicate by ELISA: IgG1, IgG2a, and IgM. Briefly stated, microtiter plates (NUNC Immunoplate, Roskilde, DK) are incubated (overnight coating) at 40C together with 100 μl ovalbumin (0.5 μg) in bicarbonate buffer pH 9.6). After washing with 0.5% Tween-20 (Merck Hohenbrunn, D), sera are diluted 50-, 200- and 800-fold (diluting solution: phosphate buffered saline (PBS)+1% bovine serum albumin (BSA, Sigma, St. Louis, Mo., USA)+0.02% Tween-20)). 100 μl of each dilute serum sample are added to the wells. Incubation lasts 45 minutes at 37° C.
After a second washing step, IgG1, IgG2a and IgM specifically directed to ovalbumin are incubated for 30 minutes at 37° C. together with 100 μl of anti-IgG1 antibodies (anti-mouse rat antibody)-peroxydase conjugate (Serotec, Oxford, UK), IgG2a-peroxydase conjugate (Pharmingen, San Diego, Calif., USA) and IgM-biotin conjugate (Pharmingen, San Diego, Calif., USA), diluted beforehand in PBS/BSA/Tween buffer (250-, 1000-, 500-fold dilutions, respectively). For IgM, after an extra washing step, a 3rd incubation step is required (30 min. at 37° C.) with a 1:100 dilute solution of streptavidin-peroxydase conjugate (Dako, Glostrup, DK).
After the washing step, 100 μl of a phenylene 1,2-diamine solution (OPD, Merck, Darmstadt, GFR) are added to detect peroxydase-coupled anti-IgG1 and anti-IgG2 secondary antibodies (whereas for IgM, the reagent being used is 3′, 3′, 5′,5′-tetramethylbenzidine (TMB, Sigma, St. Louis, Mo., USA). After a 20 minute incubation period at room temperature, the reaction is stopped by adding 100 μl of 2N H2SO4. Absorbance values are read at 490 nm with a Bio-Rad 3550 model plate reader
Results of each reading at 490 nm are given in arbitrary units (A.U.) per ml. This is achieved by comparing each sample with a standard prepared from different dilutions of a sample pool collected from group B at day 28 (animals injected with ovalbumin alone). As clearly understood by this term, the sample pool diluted 50-fold is at a concentration of 1000 A.U./ml. Individual results are then corrected for the corresponding dilution factor (50, 200, or 800 times). Only the mean values of each group and the standard deviation (SD) are herein reported.

B1: ova: ovalbumin antigen (Fluka Chemie), injected alone (protein, UniProt P01012 2-386, looked up)
Ovalbumin: GSIGAASMEFCFDVFKELKVHHANENIFYCPIAIMSALAMVYLGAKDSTRTQINKVVRFDKLPGFGDSIEAQCGTSVNVHSSLRDILNQITKPNDVYSFSLASRLYAEERYPILPEYLQCVKELYRGGLEPINFQTAADQARELINSWVESQTNGIIRNVLQPSSVDSQTAMVLVNAIVFKGLWEKAFKDEDTQAMPFRVTEQESKPVQMMYQIGLFRVASMASEKMKILELPFASGTMSMLVLLPDEVSGLEQLESIINFEKLTEWTSSNVMEERKIKVYLPRMKMEEKYNLTSVLMAMGITDVFSSSANLSGISSAESLKISQAVHAAHAEINEAGREVVGSAEAGVDAASVSEEFRADHPFLFCIKHIATNAVLFFGRCVSP
Day 14
  Immunoglobulins specifically raised against ovalbumin of IgG1 subclass: 728 ± 589 Arbitrary units/ml
  Immunoglobulins specifically raised against ovalbumin of IgG2a subclass: 5201 ± 1880 Arbitrary units/ml
  Immunoglobulins specifically raised against ovalbumin of IgM subclass: 19423 ± 13778 Arbitrary units/ml
Day 28
  Immunoglobulins specifically raised against ovalbumin of IgG1 subclass: 47743 ± 46294 Arbitrary units/ml
  Immunoglobulins specifically raised against ovalbumin of IgG2a subclass: 73162 ± 107954 Arbitrary units/ml
  Immunoglobulins specifically raised against ovalbumin of IgM subclass: 47998 ± 34035 Arbitrary units/ml
